Substitutions are numbered along the chain they refer to. Names may count otherwise.

The text below walks through data of publication PMC5445078, “Probing the Roles of Calcium-Binding Sites during the Folding of Human Peptidylarginine Deiminase 4” (Scientific Reports, 2017).

B1: PAD4 Ca1_site mutant (Q349A/E353A/E411A) (enzyme, human, UniProt Q9UM07 1-663, looked up)
chain: MAQGTLIRVTPEQPTHAVCVLGTLTQLDICSSAPEDCTSFSINASPGVVVDIAHGPPAKKKSTGSSTWPLDPGVEVTLTMKVASGSTGDQKVQISYYGPKTPPVKALLYLTGVEISLCADITRTGKVKPTRAVKDQRTWTWGPCGQGAILLVNCDRDNLESSAMDCEDDEVLDSEDLQDMSLMTLSTKTPKDFFTNHTLVLHVARSEMDKVRVFQATRGKLSSKCSVVLGPKWPSHYLMVPGGKHNMDFYVEALAFPDTDFPGLITLTISLLDTSNLELPEAVVFQDSVVFRVAPWIMTPNTQPPQEVYACSIFENEDFLKSVTTLAMKAKCKLTICPEEENMDDQWMADEMAIGYIQAPHKTLPVVFDSPRNRGLKEFPIKRVMGPDFGYVTRGPQTGGISGLDSFGNLAVSPPVTVRGKEYPLGRILFGDSCYPSNDSRQMHQALQDFLSAQQVQAPVKLYSDWLSVGHVDEFLSFVPAPDRKGFRLLLASPRSCYKLFQEQQNEGHGEALLFEGIKKKKQQKIKNILSNKTLREHNSFVERCIDWNRELLKRELGLAESDIIDIPQLFKLKEFSKAEAFFPNMVNMLVLGKHLGIPKPFGPVINGRCCLEEKVCSLLEPLGLQCTFINDFFTYHIRHGEVHCGTNVRRKPFSFKWWNMVP
notes: human peptidylarginine deiminase 4 (PAD4), cDNA cloned into pQE30; source: E. coli JM109, purified (Ni-NTA)
B2: PAD4 Ca4_site mutant (D155A/D157A/D179A/D388A) (enzyme, human, UniProt Q9UM07 1-663, looked up)
chain: B1 chain with D155A, D157A, D179A, A349Q, A353E, D388A, A411E
notes: as for B1
B3: PAD4 Ca3_site mutant (N153A/D155A/D157A/D165A/D176A/D179A) (enzyme, human, UniProt Q9UM07 1-663, looked up)
chain: B1 chain with N153A, D155A, D157A, D165A, D176A, D179A, A349Q, A353E, A411E
notes: as for B1
B4: PAD4 Ca2_site mutant (E351A/D369A/N373A) (enzyme, human, UniProt Q9UM07 1-663, looked up)
chain: B1 chain with A349Q, E351A, A353E, D369A, N373A, A411E
notes: as for B1
B5: human PAD4 Ca2_site mutant (E351A/D369A/N373A) (enzyme, UniProt Q9UM07 1-663, looked up)
chain: B1 chain with A349Q, E351A, A353E, D369A, N373A, A411E
notes: source: E. coli JM109, purified (Ni-NTA)
B6: human PAD4 Ca1_site mutant (Q349A/E353A/E411A) (enzyme, UniProt Q9UM07 1-663, looked up)
chain: B1 chain
notes: as for B5
B7: human PAD4 Ca4_site mutant (D155A/D157A/D179A/D388A) (enzyme, UniProt Q9UM07 1-663, looked up)
chain: B1 chain with D155A, D157A, D179A, A349Q, A353E, D388A, A411E
notes: as for B5
B8: human PAD4 Ca3_site mutant (N153A/D155A/D157A/D165A/D176A/D179A) (enzyme, UniProt Q9UM07 1-663, looked up)
chain: B1 chain with N153A, D155A, D157A, D165A, D176A, D179A, A349Q, A353E, A411E
notes: as for B5

One series concerns the molecule itself. Kind of series: AUC; sedimentation velocity at three protein concentrations (0.1, 0.3 and 0.9 mg/ml), globally fit with SEDPHAT; dimer to monomers.
Take B1: the affinity, expressed as Kd, was 160 ± 1 nM.

With B2, the Kd (in general, the equilibrium constant for the complex coming apart) turned out to be 410 ± 4 nM.

As to B3, the equilibrium dissociation constant (Kd) amounted to 160 ± 1 nM.

For the molecule B4, binding was put at a Kd of 150 ± 1 nM.

The target in the next series is human PAD4 Ca5_site mutant (D168A/E252A) (human) (UniProt Q9UM07). Kind of series: AUC; sedimentation velocity, 20 °C, 42,000 rpm, absorbance at 280 nm, SEDFIT continuous size distribution; no urea, 10 mM Ca2+, 50 mM Tris-HCl pH 7.4; dimer to monomers.
With “human PAD4 Ca5_site mutant (D168A/E252A) (from UniProt Q9UM07 1-663) (enzyme)”, the stoichiometry N (in general, a count of units in the complex or per binding partner) was 2.

Another series concerns the molecule itself. Described as above.
Consider B5, for which the “stoichiometry N” value worked out at 2.

Take B6: the “stoichiometry N” value worked out at 2.

B7: the “stoichiometry N” value is 2.

For B8, the “stoichiometry N” value was 2.
